Results reported in PMC6392109.

Biological target: T1, YFP-DAT, Q01959
T1 chain: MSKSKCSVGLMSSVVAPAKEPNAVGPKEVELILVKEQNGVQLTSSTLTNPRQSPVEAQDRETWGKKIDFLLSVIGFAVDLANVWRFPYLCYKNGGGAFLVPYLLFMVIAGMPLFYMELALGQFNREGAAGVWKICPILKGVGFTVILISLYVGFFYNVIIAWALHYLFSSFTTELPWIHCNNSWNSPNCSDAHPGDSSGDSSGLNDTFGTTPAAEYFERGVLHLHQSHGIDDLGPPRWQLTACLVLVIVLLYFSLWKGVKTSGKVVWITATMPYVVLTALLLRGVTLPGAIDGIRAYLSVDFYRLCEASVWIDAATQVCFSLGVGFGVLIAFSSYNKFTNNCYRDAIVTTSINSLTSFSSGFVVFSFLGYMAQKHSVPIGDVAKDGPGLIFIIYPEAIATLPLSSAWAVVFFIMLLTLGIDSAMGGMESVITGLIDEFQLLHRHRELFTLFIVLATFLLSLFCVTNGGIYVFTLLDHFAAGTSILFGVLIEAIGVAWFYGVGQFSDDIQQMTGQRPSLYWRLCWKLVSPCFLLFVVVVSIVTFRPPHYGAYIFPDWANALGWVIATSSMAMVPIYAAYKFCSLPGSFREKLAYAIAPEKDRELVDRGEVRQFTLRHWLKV
Test: FRET or BRET; CFP- and YFP-labelled proteins co-expressed in HEK293 cells; three-filter method, 63x oil immersion objective; FRET efficiency, n = 20-30 per group
Conditions: remark: other sources report otherwise

FRET efficiency: 7.62
B1: CFP-Flot1, O75955 1-427 (natural protein)
chain: MFFTCGPNEAMVVSGFCRSPPVMVAGGRVFVLPCIQQIQRISLNTLTLNVKSEKVYTRHGVPISVTGIAQVKIQGQNKEMLAAACQMFLGKTEAEIAHIALETLEGHQRAIMAHMTVEEIYKDRQKFSEQVFKVASSDLVNMGISVVSYTLKDIHDDQDYLHSLGKARTAQVQKDARIGEAEAKRDAGIREAKAKQEKVSAQYLSEIEMAKAQRDYELKKAAYDIEVNTRRAQADLAYQLQVAKTKQQIEEQRVQVQVVERAQQVAVQEQEIARREKELEARVRKPAEAERYKLERLAEAEKSQLIMQAEAEAASVRMRGEAEAFAIGARARAEAEQMAKKAEAFQLYQEAAQLDMLLEKLPQVAEEISGPLTSANKITLVSSGSGTMGAAKVTGEVLDILTRLPESVERLTGVSISQVNHKPLRTA
